Source: US20240094221A1, “METHOD FOR PREDICTING THE FERTILITY POTENTIAL OF A FEMALE SUBJECT” (Rigshospitalet, priority 2020, published 2024)
“Also recorded” adds a separate entry of the source.

Test system: female C57BL/6 mice
Assay: In vivo mice fertility study with RANKL inducer PTH
Settings: vs vehicle
Description: Twelve (12) female C57BL/6 mice will be allocated to two treatment groups (n=6, n=6) and administered with test article according to table 1. On study day 7, all females of each treatment group+3 male C57BL/6 mice will be allocated to the fertility study. In the fertility study pairs of 2 females will be housed with 1 male for a period of 5 days. During the 5 days all females are observed daily for vaginal plugs at least once per day. Administration of test articles will continue according to table 1 during the fertility study (days 7 to 11). Presence of vaginal plug, apparent pregnancy, and litter size will be recorded for each female. Females and litter will be terminated at the end of the fertility study and the weight of the pups will be determined.
Administration of test article i.p. (group 1) or vehicle i.p. (group 2) will be conducted 2 times a week for a period of 12 days. • Gr.1: 6 mice, i.p. dosing 2 times weekly for 12 days • Gr.2: 6 mice, i.p. dosing 2 times weekly for 12 days
One blood sample will be harvested on study day 12 from all female mice in the study. The blood samples will be drawn by sublingual vein puncture.
Termination: • female mice from the fertility study, will be terminated on nominal study day 12. Twelwe (12) mice will be euthanized after giving birth to litters

B1: PTH: Parathyroidea hormone; well-characterized RANKL inducer (protein, UniProt P01270 32-115, looked up)
Parathyroid hormone: SVSEIQLMHNLGKHLNSMERVEWLRKKLQDVHNFVALGAPLAPRDAGSQRPRKKEDNVLVESHEKSLGEADKADVNVLTKAKSQ
modifications: Parathyroid hormone
notes: Parathyroidea hormone; well-characterized RANKL inducer
For B1, the pregnancy rate (PTH 5 μg/kg i.p., females paired with WT males, FIG. 14A) was “increased; also recorded: doubled”, the number of pups (PTH 5 μg/kg i.p., females paired with WT males, FIG. 14B) was “increased” and the “number of pups per female” value (PTH 5 μg/kg i.p., females paired with WT males, FIG. 14C) was “increased”. The ovary weight (short-term PTH 5 μg/kg i.p., healthy female mice, p<0.05, data not shown) was “small but significant effect”.
